Reference: PMC6302314

Experiments:
[1] = molecular target: tau K18 ΔK280 (I260C/C291A/C322A), labelled with Alexa488 or Alexa647; assay: FRET or BRET; single-molecule FRET between copies; 5 μM tau–Alexa488 + 5 μM tau–Alexa647, aggregation started with heparin (1:4 heparin/tau), 22-42 °C; aliquots diluted 12.500 times into low ionic strength buffer (no NaCl); confocal detection in a microfluidic channel, 6 min per time point
[2] = molecular target: tau K18 ΔK280 (I260C/C291A/C322A), labelled with Alexa488 or Alexa647; assay: FRET or BRET; single-molecule FRET between copies; 5 μM tau–Alexa488 + 5 μM tau–Alexa647, aggregation started with heparin (1:4 heparin/tau), 22-42 °C; aliquots diluted 12.500 times into high ionic strength buffer (0.5 M NaCl); confocal detection in a microfluidic channel, 6 min per time point

maximum observed concentration of type A oligomers (37 °C) [1]: 104 nM
maximum observed concentration of type B oligomers (37 °C) [2]: 37 nM
Substance: tau K18 ΔK280 (I260C/C291A/C322A), labelled with Alexa488 or Alexa647 (domain or fragment)
